The values below come from article PMC9205463.

Usually Km stands for the concentration of substrate that gives half-maximal velocity. Broadly, the kcat is the number of substrate molecules converted per active site and unit of time at saturation.

Substrate in the data set: Nc1ncnc2c1ncn2[C@@H]1O[C@H](COP(=O)(O)OP(=O)(O)OP(=O)(O)O)[C@@H](O)[C@H]1O
Description: purified protein. The note with it: M13 ssDNA effector; ATP 0-4 mM.

B1: DDX41 (Homo sapiens) (protein)
chain: MEESEPERKRARTDEVPAGGSRSEAEDEDDEDYVPYVPLRQRRQLLLQKLLQRRRKGAAEEEQQDSGSEPRGDEDDIPLGPQSNVSLLDQHQHLKEKAEARKESAKEKQLKEEEKILESVAEGRALMSVKEMAKGITYDDPIKTSWTPPRYVLSMSEERHERVRKKYHILVEGDGIPPPIKSFKEMKFPAAILRGLKKKGIHHPTPIQIQGIPTILSGRDMIGIAFTGSGKTLVFTLPVIMFCLEQEKRLPFSKREGPYGLIICPSRELARQTHGILEYYCRLLQEDSSPLLRCALCIGGMSVKEQMETIRHGVHMMVATPGRLMDLLQKKMVSLDICRYLALDEADRMIDMGFEGDIRTIFSYFKGQRQTLLFSATMPKKIQNFAKSALVKPVTINVGRAGAASLDVIQEVEYVKEEAKMVYLLECLQKTPPPVLIFAEKKADVDAIHEYLLLKGVEAVAIHGGKDQEERTKAIEAFREGKKDVLVATDVASKGLDFPAIQHVINYDMPEEIENYVHRIGRTGRSGNTGIATTFINKACDESVLMDLKALLLEAKQKVPPVLQVLHCGDESMLDIGGERGCAFCGGLGHRITDCPKLEAMQTKQVSNIGRKDYLAHSSMDF
Turning to B1, the Km was determined as 200 µM and the kcat amounted to 953.6 ± 45.5 s⁻¹.
